# PMC7067600 (Nature structural & molecular biology, 2019)
# T1: FANCI (isolated) (Gallus gallus, UniProt B0I564 1-1338)
# T1 sequence: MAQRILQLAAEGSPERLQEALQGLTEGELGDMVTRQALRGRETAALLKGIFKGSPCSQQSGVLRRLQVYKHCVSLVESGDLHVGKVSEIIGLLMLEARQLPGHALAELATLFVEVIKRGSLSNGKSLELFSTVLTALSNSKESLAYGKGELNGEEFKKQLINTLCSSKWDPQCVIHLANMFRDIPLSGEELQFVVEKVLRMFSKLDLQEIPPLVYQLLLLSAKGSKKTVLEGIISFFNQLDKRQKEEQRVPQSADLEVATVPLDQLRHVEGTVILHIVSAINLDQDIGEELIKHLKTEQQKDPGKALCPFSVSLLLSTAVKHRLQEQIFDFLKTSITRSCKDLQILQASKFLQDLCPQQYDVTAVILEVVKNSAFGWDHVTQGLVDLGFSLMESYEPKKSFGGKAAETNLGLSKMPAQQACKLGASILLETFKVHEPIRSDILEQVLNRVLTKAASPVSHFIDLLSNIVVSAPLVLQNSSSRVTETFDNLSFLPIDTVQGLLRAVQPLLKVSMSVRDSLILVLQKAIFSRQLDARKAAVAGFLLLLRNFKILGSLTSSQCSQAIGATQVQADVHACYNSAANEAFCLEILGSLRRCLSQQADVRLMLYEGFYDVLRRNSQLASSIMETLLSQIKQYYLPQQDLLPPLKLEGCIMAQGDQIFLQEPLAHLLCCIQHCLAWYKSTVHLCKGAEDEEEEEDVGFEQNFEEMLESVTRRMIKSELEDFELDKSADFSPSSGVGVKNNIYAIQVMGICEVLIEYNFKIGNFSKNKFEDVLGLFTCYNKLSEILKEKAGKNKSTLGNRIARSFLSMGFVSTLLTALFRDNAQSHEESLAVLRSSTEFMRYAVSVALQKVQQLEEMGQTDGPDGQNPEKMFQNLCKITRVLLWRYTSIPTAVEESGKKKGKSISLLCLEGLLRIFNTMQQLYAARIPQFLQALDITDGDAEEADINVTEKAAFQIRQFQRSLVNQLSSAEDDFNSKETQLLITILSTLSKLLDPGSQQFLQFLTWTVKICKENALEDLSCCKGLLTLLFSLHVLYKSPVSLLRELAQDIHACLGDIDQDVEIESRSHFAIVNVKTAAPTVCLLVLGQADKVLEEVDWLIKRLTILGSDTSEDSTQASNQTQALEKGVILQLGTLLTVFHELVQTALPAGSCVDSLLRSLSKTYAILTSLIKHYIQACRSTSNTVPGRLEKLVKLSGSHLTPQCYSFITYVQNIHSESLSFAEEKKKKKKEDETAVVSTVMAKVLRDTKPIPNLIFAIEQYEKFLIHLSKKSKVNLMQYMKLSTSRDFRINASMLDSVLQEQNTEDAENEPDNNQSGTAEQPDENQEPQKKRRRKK
# B1: StrepII-tagged Gallus gallus FANCD2 (expressed alone) (natural protein, UniProt Q68Y81 1-1439, looked up)
# chain: MVSKRKLSKIDAAEESSKTDLQSRCPETKRSRISDKRAPSQGGLENEGVFEELLRTSGIILKVGEGQNEIAVDQTAFQKKLRVALEKHPSYPGVVNEFISGLESHIKDRSQFKNCLLPCTPARTEGSRTLVHSYCESLIKLLLGIKILQPAVVTLLLEKIPEFFFDVVGTFGTNFPRLIVNQFKWLDGLLDSQDLVKKLMQMLSVSPVPIQHDIITSLPEILEDSQQNEVARELSCLLKQGRRLTVPILDALSRLDLDAELLAEVRQSAMTIVPSVKLEDLPVVIKFILHNVKAADAVEVISDLRKSLDLSSCVLPLQLLGSQRKLKSQAQASSSMSQVTTSQNCVKLLFDVIKQAVRFQKDVSEAWIKAIENSTSVSDHKVLDLIVLLLIHSTNSKNRKQTEKVLRSKIRLGCMPEQLMQNAFQNHSMVIKDFFPSILSLAQTFLHSAHPAVVSFGSCMYKQAFAVFDSYCQQEVVCALVTHVCSGNETELDISLDVLTDLVILHPSLLLRYATFVKTILDSMQKLNPCQIRKLFYILSTLAFSQRQEGSYIQDDMHMVIRKWLSSSVPNHKQMGIIGAVTMMGSVALKRNEADGGLLERPELSIECDGQLSTLLDLVGFCCEQTPEVLALYYDELANLIEKQKGNLDLQLLDKFGKSLVEDFPNDFVVDLSPTVDGSFLFPVKSLYNLDEDETQGAIAINLLPLVSQSEPGRVADEMSNSRKRVVSPICLSPCFRLLRLYTGEQNNGSLEEIDALLGCPLYLTDLEVEGKLDSLSKQEREFLCSLLFYALNWFREVVNAFCQQQDAEMKGKVLTRLQNITELQNVLGKCLAATPGYVPPPATFDSEAPEGVPSINAGGPVRKKNGKKRKSDSSKACSAERTQADESSDGNQPDTELSELEKSATEKETGNPLAQLQSYRPYFRELDLEVFSVLHCGLLTKSILDTEMHTEASEVVQLGPAELCFLLDDMCWKLEHVLTPGSTRRVPFLKERGNKDVGFSHLCQRSPKEVAVCVVKLLKPLCNHMENMHNYFQTVIPNQGVVDESGLNIQEYQLMSSCYHQLLLAFRLLFAWSGFSQHENSNLLRSALQVLADRLKPGETEFLPLEELISESFQYLLNFQASIPSFQCAFILTQVLMAISEKPMTGWKREKMASLAKQFLCQSWMKPGGDREKGSHFNSALHTLLCVYLEHTDNILKAIEEISSVGVPELINSAKDGCSSTYPTLSRQTFPVFFRVMMAQLESSVKSIPAGKPSDSGEVQLEKLLKWNIAVRNFHILINLVKVFDSRPVLSICLKYGRLFVEAFLKLAMPLLDHSFKKHRDDVQSLLKTLQLSTRQLHHMCGHSKIHQDLGLTNHVPLLKKSLEQFVYRVKAMLAFNHCQEAFWVGVLKNRDLQGEEILSQASAAPEEDSAEGSEEDTADSAAEEPDGTDSDSGGAGR
# B2: His-tagged Gallus gallus FANCI (expressed alone) (natural protein, UniProt B0I564 1-1338, looked up)
# chain: T1 sequence
# B3: 14 bp dsDNA (dsDNA)
# DNA 1: ATCGATGTCTCTAG
# DNA 2: CTAGAGACATCGAT
# B4: 39 bp dsDNA (dsDNA)
# DNA 1: ATCGATGTCTCTAGACAGCTGCTCAGGATTGATCTGTAA
# DNA 2: TTACAGATCAATCCTGAGCAGCTGTCTAGAGACATCGAT
# B5: 19 bp dsDNA (dsDNA)
# DNA 1: ATCGATGTCTCTAGACAGC
# DNA 2: GCTGTCTAGAGACATCGAT
# What was measured:
# SEC = target: the molecule itself; test: SEC
# [1] = target: B1; test: pull-down
# [2] = target: FANCD2 (in co-expressed D2-I);FANCI (in co-expressed D2-I) (Gallus gallus;Gallus gallus, UniProt Q68Y81;B0I564 1-1439;1-1338, |); test: EMSA
# FANCI (isolated) = target: T1, FANCI (isolated); test: EMSA
# FANCD2 (isolated) = FANCD2 (isolated) (Gallus gallus, UniProt Q68Y81 1-1439); test: EMSA
binder,measurement,setting,value
B1,stoichiometry N,SEC,2
B2,stoichiometry N,[1],~1 FANCI:FANCD2
B3,binding result,[2],no binding
B4,binding result,FANCI (isolated),binds
same,binding result,FANCD2 (isolated),no binding
B5,binding result,[2],binds
